Experiment: yeast display, Sf9 membrane polyspecificity reagent, FACS + sequencing; frameworks hold sequencing errors
Procedure, shortened: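 After 36–48 hours of galactose induction, yeast (Saccharomyces cerevisiae BJ5465) displaying a synthetic nanobody library were stained at 4 °C for 1 hour with 10% biotinylated, detergent-solubilized Sf9 membrane reagent. Streptavidin microbeads enriched the stained cells before FACS sorting into low and high (top ~1%) gates on anti-HA and streptavidin fluorescence. Each clone's polyreactivity label reflects its gate of origin.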

Row | Sequence | polyreactivity (PSR sort gate)
1 | QVQLVESGGGLVQAGGSLRLSCAASGLIFTVYAMGWYRQAPGKERELVAAISGTGGSTYYADSVKGRFTISRDNAKNTVYLQMNSLIPEDTAVYYCAAVPIIRLATTSSSRGDYWGQGTQVTVSS | low polyreactivity
2 | QVQLVESGGGLVQAGGSLRLSCAASGLIFTYYAMGWYRQAPGKERELVAAISSSGVNTYYADSVKGRFTISRDNAKNTVYLQMNSLKPEDTAVYYCAAELQPSPVGGIIQYGFDYWGQGTPVTVSS | low polyreactivity
3 | QVQLVESGGGLVQAGGSLRLSCAASGLIFVANAMGWYRQAPGKERELVAAISRSGGITYYADSVKGRFTISRDNAKNTVYLQMNSLKPQDTAVYYCAKTLPSNGHYDYWGQGTQVTVSS | low polyreactivity
4 | QVQLVESGGGLVQAGGSLRLSCAASGLIFVDNAMGLYRQAPGKERELVAAIDSGGSTNYADSVKGRFTISRDNAKTTVYLQMNSLNPEDTAVYYCAADWIYAPWYYQESVEYYYWGQGTQVTVSS | low polyreactivity
5 | QVQLVESGGGLVQAGGSLRLSCAASGLIFVDNAMGWYRPAPGKEREVVAAIDSGGSTNYADSVKGRFTISRDNAKNTVYLQMNSLKPEDTAVYYCAADWIYAPWYYQESVEYYYWGQGTQVTVSS | low polyreactivity
6 | QVQLVESGGGLVQAGGSLRLSCAASGLIFVFYAMGWYRQAPGKERELVAAISRSGTSTYADSVKGRFTISRDNAKNTVYLQMNSLKPEDTAVYYCNAYRYYSPYGYWGQGTQVTVSS | low polyreactivity
7 | QVQLVESGGGLVQAGGSLRLSCAASGLIFVKYAMGWYRQAPGKERELVADITSTGGSTYYADSVKGRFTISRDNAKNTVYLQMNSLKPEDTAVYYCATDYGYYDYWGQGTQVTVSS | low polyreactivity
8 | QVQLVESGGGLVQAGGSLRLSCAASGLIFVNAMGWYRQAPGKEREFVAAITYSTGSTYYADSVKGRFTISRDNAKNTVYLQMNRLKPEDTAVYYCAKDRSGHGTERDYWGQGTQVTVSS | low polyreactivity
9 | QVQLVESGGGLVQAGGSLRLSCAASGLIFVRYAMGWYRQAPGKERELVAAISRGGTTYYADSVKGRFTISRDNAKNTVYLQMNSLKPEDTAVYYCAVGIRYSKDYYYWGQGTQVTVSS | high polyreactivity
10 | QVQLVESGGGLVQAGGSLRLSCAASGLIFVSNAMGWYRQAPGKERELVAAISWSGSRTYYADSVKGRFTISRDNAKNTVYLQMNSLKPEDTAVYYCNAVRRGLPVVGAYDYWGQGTQVTVSS | high polyreactivity
11 | QVQLVESGGGLVQAGGSLRLSCAASGLIFVSYAMGWYRQAPGKERELVAAISSGGSTYYADSVKGRFTISRDNAKNTVYLQMNSLKPEDTAVYYCAAEYVFRGYVGYDYWGQGTQVTVSS | low polyreactivity
12 | QVQLVESGGGLVQAGGSLRLSCAASGLIFWAYAMGWYRQAPGKERELVAAISWSGARTYYADSVKGRFTISRDNAKNTVYLQMNILKPEDTAVYYCAAGLSSSSSGYEGDYWGLGTQVTVSS | high polyreactivity
13 | QVQLVESGGGLVQAGGSLRLSCAASGLIFWKYAMGWYREAPGKERELVAAITSGGSTNYADSVKGRFTISRDNAKNPVYLQMNSLKPEDTAVYYCNARSWFEYYWGQGTQVTVSS | high polyreactivity
14 | QVQLVESGGGLVQAGGSLRLSCAASGLIFWKYARGWYRQAPGKERELVAAIRKSVGSTYYADSVKGRFTISRDNAKNTVYLQMNSLKPEDTAVYYCAAVNAGVGSPVKRDYWGQGTQVTVSS | high polyreactivity
15 | QVQLVESGGGLVQAGGSLRLSCAASGLIFWLNAMGWYRQAPGKERELVATITAGGDDTNYADSVKGRFTISRDNAKNTVYLQMNSLKPEDTAVYYCAKSRTRSGHYGYDYWGQGTQVTVSS | low polyreactivity
16 | QVQLVESGGGLVQAGGSLRLSCAASGLIFWYSAMGWYRQAPGKERELVAAISSGGSTNYADSVKGRFTISRDNAKNTVYLQMNSLKPEDTAVYYCNVYTYRFHTARQAVDYWGQGTQVTVSS | low polyreactivity

Row | Sequence | polyreactivity (PSR sort gate)
17 | QVQLVESGGGLVQAGGSLRLSCAASGLIFYDNMGWYRQAPGKERELVAAISSSGGSTSYADSVKGRFTISRDNAKNTVYLQMNSLKPEDTAVYDSAADSYPAYLGFVGFDYWGQGTQVTVSS | low polyreactivity
18 | QVQLVESGGGLVQAGGSLRLSCAASGLIFYDNVMGWYRQAPVKEREFVAAITSIGGSTYYADSVKGRFTISRDNAKNTVYLQMNSLKPEDTAVYYCNVKSKYYSPNYDYWGQGTQVTVSS | low polyreactivity
19 | QVQLVESGGGLVQAGGSLRLSCAASGLIFYFYAMGWYRQAPGKERELVAAISSRGGRTYYADSVKGRFTISRDNAKNTVYLQMNSLKPEDTAVYYCNVDQLLRRTSAQGDYWGQGTQVTVSS | high polyreactivity
20 | QVQLVESGGGLVQAGGSLRLSCAASGLIFYGNAMGWYRKAPGKERELVAAISWSGGNTSYADSVKGRFTISRDNAKNTVYVLMNSLKAEDTAVDYCNADSLPSLERYGYWGQGTQVTVSS | low polyreactivity
21 | QVQLVESGGGLVQAGGSLRLSCAASGLIFYIYAMGRYREAPGKERELVAAISSSGGSTFYADSVKGRFTISRDNAKNTVYLQMNSLKPEDTAVYYCAAYYGGGYGFHRDYWGQGTQVTVSS | high polyreactivity
22 | QVQLVESGGGLVQAGGSLRLSCAASGLIFYIYMGWYRQAPGKESELVAVISSSGNSTYYADSVKGRFTISRYNAKNTVYLQLNSLKPEDTAVYYCNASAYYPPSSSRYYYWGQGTQVTVSS | low polyreactivity
23 | QVQLVESGGGLVQAGGSLRLSCAASGLIFYKYAMGWYRPAPGKERELVAAISSSGGSTYYADSVKGRFTISRDNAKNTVYLQMNSLKPEDTAVYYCAARTNRRGYNYWGQGTQVTVSS | high polyreactivity
24 | QVQLVESGGGLVQAGGSLRLSCAASGLIFYKYAMGWYRQAPGKERELVAAITSGGSTNYADSVKGRFTISRDNAKNTVYLQMNSLKPEDTAVYYCNADYNLYLVVRWWYPPVDYWGQGTQVTVSS | low polyreactivity
25 | QVQLVESGGGLVQAGGSLRLSCAASGLIFYLYAMGWYRQAPGKERELVAAITSGGGSTYYADSVKGRFTHSRDHAKNTVYLQMNSLKPEDTGVYYCAARLVLYITVVYEDDYWGQGTQVTVSS | low polyreactivity
26 | QVQLVESGGGLVQAGGSLRLSCAASGLIFYPNGMGWYRQAPGKERELVAAITYSDGSTYYADSVKGRCTISRDNAKNTVYLQMNSLKPEDTAVYYCTARWGYRRGYWGQGTQVTVSS | high polyreactivity
27 | QVQLVESGGGLVQAGGSLRLSCAASGLIFYRNAMGWYRQAPGKERELVAAIRFSTGSTYYADSVKGRFTISRDNAKKTVYLQMNSLKPEDTAVYYCAADRRYYWYNYWGQGTQVTVSS | high polyreactivity
28 | QVQLVESGGGLVQAGGSLRLSCAASGLIFYTYAMGWYRQAPGKERELVAGISRSGTSTRYADSVKGRFTISRDNAKNTVYLQMNSLKPEDTAVYYCNAVGRSKHGYSRSYYWGQGTQVTVSS | high polyreactivity
29 | QVQLVESGGGLVQAGGSLRLSCAASGLIFYTYAMGWYRQAPGKERELVATISGRGGSTYYADSVKGRFTISRDNAKNTVYLQMNSLKPEDTAVYYCNVVPSTYYQYDYWGQGTQVTVSS | high polyreactivity
30 | QVQLVESGGGLVQAGGSLRLSCAASGLIFYYYALAWYRQAPGKERELVAAITWTAGSTSYADSVKGRFTISRDNAKNTVYLQMNRLKPEDTAVYYCAADYRHDTFSNEYDYWGQGTQVTVSS | low polyreactivity
31 | QVQLVESGGGLVQAGGSLRLSCAASGLIIPKYAMGWYRQAPGKEREFVAAISGRGGTTYYADSVKGRFTISRDNAKNTVYLQMYSLKPEDTAVYYCAAGGPWANIYGNGYWGQGTQVTVSS | high polyreactivity
32 | QVQLVESGGGLVQAGGSLRLSCAASGLILDGYAMGWYRQAPGKERELVAAITRSGGRTYYADSVKGRFTISRDNAKNTVYLQMNSLKPEDTAVYYCAALGWSGRYSYDYWGQGTQVTVSS | high polyreactivity
